From patent US20190144517A1 (SHANGHAI JW INFLINHIX, published 2019)

Target: T1, TNF receptors on L929 cells (mouse, UniProt P25118 30-454)
T1 construct: whole, on cells; The result text says 'TNF receptors'; the staining used an anti-TNFR1 antibody; also called cell surface receptors; TNFR1
T1 sequence (looked up): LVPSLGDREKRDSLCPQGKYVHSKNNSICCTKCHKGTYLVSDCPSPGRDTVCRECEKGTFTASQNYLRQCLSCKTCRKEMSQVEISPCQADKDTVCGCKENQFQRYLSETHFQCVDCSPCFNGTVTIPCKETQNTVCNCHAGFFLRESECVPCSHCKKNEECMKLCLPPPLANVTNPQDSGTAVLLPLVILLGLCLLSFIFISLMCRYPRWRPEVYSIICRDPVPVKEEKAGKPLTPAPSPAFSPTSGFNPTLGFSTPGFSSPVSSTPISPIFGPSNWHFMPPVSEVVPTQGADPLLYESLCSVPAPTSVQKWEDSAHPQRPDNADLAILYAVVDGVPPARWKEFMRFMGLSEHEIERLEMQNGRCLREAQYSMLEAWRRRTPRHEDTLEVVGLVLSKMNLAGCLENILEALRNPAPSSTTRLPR
Experiment: confocal immunofluorescence on L929 cells
Protocol: The cells were fixed with 4% paraformaldehyde (PBS formulation) were for 10 minutes, blocked with phosphate buffer containing 0.5% BSA and 0.1% cold water fish gelatin for 15 minutes, and then incubated with rabbit anti-TNFR1 antibody (Abeam) for 1 hour. The cells were washed with PBS and then incubated with the relevant secondary antibody coupled to Alexa Fluor 488 or Alexa Fluor 568 (Invitrogen). Then the sample washed with PBS was mounted with Gelvatol/DABCO (Sigma-Aldrich). DNA was counterstained with DAPI (Sigma-Aldrich). All samples were analyzed by fluorescence microscopy at 60× using Nikon Eclipse 80i. Images were taken with NIS-Elements AR3.0 software using Hamamatsu camera.

B1: monoclonal antibody 244-12 (antibody, mouse IgG2b, kappa, V domains shown)
VH: QIQLVQSGPELKKPGETVKISCKASGYTFTNYGMNWVKQAPGKGLKWMGWINTYTGEPTYADDFKGRFAFSLETSANTAYLQINNLRNEGMATYFCARHYRYAWFPYWGQGTLVTVSA
VL: DIQMTQSPASLSASVGETVTITCRASGNIHIYLAWYQQKQGKSPQLLVYNAKTLADGVPSRFSGSGSGTQYSLKINSLQPEDFGSYYCQHFWSIPWTFGGGTKLEIKR
notes: It was detected with an anti-mouse IgG secondary antibody
- binding result: no binding (tested: 2 µg/ml)
